# Values quoted from earlier work in publication PMC2792886.
# Molecular target: holoBirA (Escherichia coli) (UniProt P06709)
substance,measurement,value
holoBirA (from UniProt P06709),Kd,10 µM
